Assay results: US20220340635A1, “FUSION PROTEIN FOR TREATMENT OF METABOLIC DISEASE” (ZHEJIANG DOER BIOLOGICS CORPORATION, priority 2019, published 2022)
No end group written: not given here.

What was measured:
[1] = molecular target: Recombinant DPP-IV enzyme (Homo sapiens, UniProt P27487); assay: DPP-IV enzyme resistance (GCGR bioactivity after DPP-IV treatment); assay type: in vitro ADME; conditions: 5 μM protein, 10 nM recombinant DPP-IV, 37° C., 24 hours; GCGR bioactivity after/before treatment
Description: The purified fusion protein was dissolved in 10 mM of HEPES buffer (containing 0.05 mg/ml BSA) to a final concentration of 5 μM. Recombinant DPP-IV enzyme (final concentration of 10 nM) was added and incubated at 37° C. for 24 hours before detection of GCGR bioactivity. Activity retention rate=(activity after DPP-IV enzyme treatment/activity before DPP-IV enzyme treatment)×100%.

[2] = in vivo; cited from earlier work

Recombinant DPP-IV enzyme, sequence (P27487 whole entry, species assumed, the tested form may be a part): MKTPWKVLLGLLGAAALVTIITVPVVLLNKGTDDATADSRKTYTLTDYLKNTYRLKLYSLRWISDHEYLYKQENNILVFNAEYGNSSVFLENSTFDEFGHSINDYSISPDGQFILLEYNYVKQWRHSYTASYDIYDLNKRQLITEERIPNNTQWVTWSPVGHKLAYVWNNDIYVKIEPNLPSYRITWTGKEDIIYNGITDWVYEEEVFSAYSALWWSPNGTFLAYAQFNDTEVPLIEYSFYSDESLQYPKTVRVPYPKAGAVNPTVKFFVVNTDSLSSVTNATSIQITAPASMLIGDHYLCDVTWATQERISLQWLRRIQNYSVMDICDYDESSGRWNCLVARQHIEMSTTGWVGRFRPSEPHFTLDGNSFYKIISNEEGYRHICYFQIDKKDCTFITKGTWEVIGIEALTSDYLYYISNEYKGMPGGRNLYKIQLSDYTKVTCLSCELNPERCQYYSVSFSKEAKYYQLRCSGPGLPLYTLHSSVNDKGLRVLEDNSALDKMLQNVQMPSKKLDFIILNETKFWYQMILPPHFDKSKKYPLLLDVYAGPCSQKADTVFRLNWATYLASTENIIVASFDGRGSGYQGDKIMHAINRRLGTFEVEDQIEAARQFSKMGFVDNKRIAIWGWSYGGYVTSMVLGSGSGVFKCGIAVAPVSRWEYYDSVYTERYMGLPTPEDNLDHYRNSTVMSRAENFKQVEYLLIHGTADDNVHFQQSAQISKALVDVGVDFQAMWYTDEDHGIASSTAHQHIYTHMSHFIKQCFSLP

## H-D-Ser-QGTFTSDYSKYLDSQAAQDFVQWLMNGGPSSGAPPPS (not fully specified (N-terminus)) [GDSerGS, control]
[1]
  Activity preservation rate (%): 99.2%

## Taspoglutide
[2]
  Anti-drug antibody positive rate: 49%
